Measurements from US20110047631A1, “HEAT SHOCK PROTEIN DEFICIENCIES AS MODEL SYSTEMS FOR BRAIN PATHOLOGY AND CANCER” (Medical College of Georgia Research Institute Inc., priority 2009, published 2011).

Molecular target: tau (total tau), endogenous mouse protein in brain extracts (mouse) (UniProt P10637)
Assay: immunoprecipitation with antibody to total tau, immunoblot for Chip; 8 months old against 6 weeks old mice

tau (total tau), endogenous mouse protein in brain extracts (mouse), sequence (P10637 other isoform, or with tags, fused parts or gaps limits assumed): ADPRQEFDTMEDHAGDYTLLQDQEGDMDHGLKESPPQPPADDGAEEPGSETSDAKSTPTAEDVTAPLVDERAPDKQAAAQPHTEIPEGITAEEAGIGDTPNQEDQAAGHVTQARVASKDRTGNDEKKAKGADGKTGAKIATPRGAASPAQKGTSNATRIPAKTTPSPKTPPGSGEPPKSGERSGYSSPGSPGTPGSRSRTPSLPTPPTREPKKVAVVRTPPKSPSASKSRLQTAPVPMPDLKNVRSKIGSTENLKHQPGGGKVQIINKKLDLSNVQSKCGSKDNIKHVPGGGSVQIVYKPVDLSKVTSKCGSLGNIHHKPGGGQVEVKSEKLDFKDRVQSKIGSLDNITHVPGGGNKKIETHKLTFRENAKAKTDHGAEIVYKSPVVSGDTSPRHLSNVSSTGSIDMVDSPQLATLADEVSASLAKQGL

fold amount of Chip co-immunoprecipitated with tau in aged brain extracts: 2 fold
Substance: Chip (C-terminal Hsp70-interacting protein) ubiquitin ligase, endogenous mouse protein in brain extracts (from UniProt Q9WUD1 1-304) (enzyme)
